# Values of other authors, collected in paper PMC3045386.
# Target: Ran (Homo sapiens) (UniProt P62826)
substance,measurement,value
RanBP3 (from UniProt Q9H6Z4),Kd,10 µM
